Results published in patent US20100144601A1 (Janssen / Centocor, published 2010).

B1: Clone No. 6 (designed binder)
chain: LPAPKNLVVSEVTEDSLRLSWTAPDAAFDSFLIQYQESEKVGEAINLTVPGSERSYDLTGLKPGTEYTVSIYGVGGLTVIHPLSAEFTT
notes: F:G GGLTVIH
B2: Clone No. 84 (designed binder)
chain: LPAPKNLVVSEVTEDSLRLSWTAPDAAFDSFLIQYQESEKVGEAINLTVPGSERSYDLTGLKPGTEYTVSIYGVSVRMSSVPLSAEFTT
notes: F:G SVRMSSV
B3: Clone No. 81 (designed binder)
chain: LPAPKNLVVSEVTEDSLRLSWTAPDAAFDSFLIQYQESEKVGEAINLTVPGSERSYDLTGLKPGTEYTVSIYGVVLSLWMIPLSAEFTT
notes: F:G VLSLWMI
B4: Clone No. 13 (designed binder)
chain: LPAPKNLVVSEVTEDSLRLSWTAPDAAFDSFLIQYQESEKVGEAINLTVPGSERSYDLTGLKPGTEYTVSIYGVGALSVIHPLSAEFTT
notes: F:G GALSVIH
B5: Clone No. 35 (designed binder)
chain: LPAPKNLVVSEVTEDSLRLSWTAPDAAFDSFLIQYQESEKVGEAINLTVPGSERSYDLTGLKPGTEYTVSIYGVGGLAYLHPLSAEFTT
notes: F:G GGLAYLH
B6: Clone No. 75 (designed binder)
chain: LPAPKNLVVSEVTEDSLRLSWTAPDAAFDSFLIQYQESEKVGEAINLTVPGSERSYDLTGLKPGTEYTVSIYGVMTLTGIDPLSAEFTT
notes: F:G MTLTGID
B7: Clone No. 5 (designed binder)
chain: LPAPKNLVVSEVTEDSLRLSWTAPDAAFDSFLIQYQESEKVGEAINLTVPGSERSYDLTGLKPGTEYTVSIYGVGGLSVIHPLSAEFTT
notes: F:G GGLSVIH
B8: Clone No. 80 (designed binder)
chain: LPAPKNLVVSEVTEDSLRLSWTAPDAAFDSFLIQYQESEKVGEAINLTVPGSERSYDLTGLKPGTEYTVSIYGVRVSEEYGPLSAEFTT
notes: F:G RVSEEYG
B9: Clone No. 36 (designed binder)
chain: LPAPKNLVVSEVTEDSLRLSWTAPDAAFDSFLIQYQESEKVGEAINLTVPGSERSYDLTGLKPGTEYTVSIYGVGGLSVVHPLSAEFTT
notes: F:G GGLSVVH
B10: Clone No. 83 (designed binder)
chain: LPAPKNLVVSEVTEDSLRLSWTAPDAAFDSFLIQYQESEKVGEAINLTVPGSERSYDLTGLKPGTEYTVSIYGVDVTEVYMPLSAEFTT
notes: F:G DVTEVYM
B11: Clone No. 3 (designed binder)
chain: LPAPKNLVVSEVTEDSLRLSWTAPDAAFDSFLIQYQESEKVGEAINLTVPGSERSYDLTGLKPGTEYTVSIYGVEGLGVIHPLSAEFTT
notes: F:G EGLGVIH
B12: Clone No. 12 (designed binder)
chain: LPAPKNLVVSEVTEDSLRLSWTAPDAAFDSFLIQYQESEKVGEAINLTVPGSERSYDLTGLKPGTEYTVSIYGVGGLRVIHPLSAEFTT
notes: F:G GGLRVIH
B13: Clone No. 10 (designed binder)
chain: LPAPKNLVVSEVTEDSLRLSWTAPDAAFDSFLIQYQESEKVGEAINLTVPGSERSYDLTGLKPGTEYTVSIYGVGGLTDIHPLSAEFTT
notes: F:G GGLTDIH
B14: Clone No. 69 (designed binder)
chain: LPAPKNLVVSEVTEDSLRLSWTAPDAAFDSFLIQYQESEKVGEAINLTVPGSERSYDLTGLKPGTEYTVSIYGVVLSVLQRPLSAEFTT
notes: F:G VLSVLQR
B15: Clone No. 4 (designed binder)
chain: LPAPKNLVVSEVTEDSLRLSWTAPDAAFDSFLIQYQESEKVGEAINLTVPGSERSYDLTGLKPGTEYTVSIYGVGGLGVIHPLSAEFTT
notes: F:G GGLGVIH
B16: Clone No. 8 (designed binder)
chain: LPAPKNLVVSEVTEDSLRLSWTAPDAAFDSFLIQYQESEKVGEAINLTVPGSERSYDLTGLKPGTEYTVSIYGVGGLTYLHPLSAEFTT
notes: F:G GGLTYLH
B17: Clone No. 76 (designed binder)
chain: LPAPKNLVVSEVTEDSLRLSWTAPDAAFDSFLIQYQESEKVGEAINLTVPGSERSYDLTGLKPGTEYTVSIYGVGGWPVRVPLSAEFTT
notes: F:G GGWPVRV
B18: Clone No. 9 (designed binder)
chain: LPAPKNLVVSEVTEDSLRLSWTAPDAAFDSFLIQYQESEKVGEAINLTVPGSERSYDLTGLKPGTEYTVSIYGVGGLSYFHPLSAEFTT
notes: F:G GGLSYFH
B19: Clone No. 1 (designed binder)
chain: LPAPKNLVVSEVTEDSLRLSWTAPDAAFDSFLIQYQESEKVGEAINLTVPGSERSYDLTGLKPGTEYTVSIYGVGGLTYFHPLSAEFTT
notes: F:G GGLTYFH
B20: Clone No. 68 (designed binder)
chain: LPAPKNLVVSEVTEDSLRLSWTAPDAAFDSFLIQYQESEKVGEAINLTVPGSERSYDLTGLKPGTEYTVSIYGVWHGMIRPPLSAEFTT
notes: F:G WHGMIRP
B21: Clone No. 79 (designed binder)
chain: LPAPKNLVVSEVTEDSLRLSWTAPDAAFDSFLIQYQESEKVGEAINLTVPGSERSYDLTGLKPGTEYTVSIYGVGIPRWVRPLSAEFTT
notes: F:G GIPRWVR
B22: Clone No. 11 (designed binder)
chain: LPAPKNLVVSEVTEDSLRLSWTAPDAAFDSFLIQYQESEKVGEAINLTVPGSERSYDLTGLKPGTEYTVSIYGVGGLSSIHPLSAEFTT
notes: F:G GGLSSIH
B23: Clone No. 70 (designed binder)
chain: LPAPKNLVVSEVTEDSLRLSWTAPDAAFDSFLIQYQESEKVGEAINLTVPGSERSYDLTGLKPGTEYTVSIYGVEWRVQVAPLSAEFTT
notes: F:G EWRVQVA
B24: Clone No. 82 (designed binder)
chain: LPAPKNLVVSEVTEDSLRLSWTAPDAAFDSFLIQYQESEKVGEAINLTVPGSERSYDLTGLKPGTEYTVSIYGVWMVNKVLPLSAEFTT
notes: F:G WMVNKVL
B25: Clone No. 73 (designed binder)
chain: LPAPKNLVVSEVTEDSLRLSWTAPDAAFDSFLIQYQESEKVGEAINLTVPGSERSYDLTGLKPGTEYTVSIYGVPWRYGLHPLSAEFTT
notes: F:G PWRYGLH
B26: Clone No. 34 (designed binder)
chain: LPAPKNLVVSEVTEDSLRLSWTAPDAAFDSFLIQYQESEKVGEAINLTVPGSERSYDLTGLKPGTEYTVSIYGVGGLTVLHPLSAEFTT
notes: F:G GGLTVLH
B27: Clone No. 15 (designed binder)
chain: LPAPKNLVVSEVTEDSLRLSWTAPDAAFDSFLIQYQESEKVGEAINLTVPGSERSYDLTGLKPGTEYTVSIYGVITHMRDMPLSAEFTT
notes: F:G ITHMRDM
B28: Clone No. 77 (designed binder)
chain: LPAPKNLVVSEVTEDSLRLSWTAPDAAFDSFLIQYQESEKVGEAINLTVPGSERSYDLTGLKPGTEYTVSIYGVLDLYLRTPLSAEFTT
notes: F:G LDLYLRT
B29: Clone No. 72 (designed binder)
chain: LPAPKNLVVSEVTEDSLRLSWTAPDAAFDSFLIQYQESEKVGEAINLTVPGSERSYDLTGLKPGTEYTVSIYGVMLKSFASPLSAEFTT
notes: F:G MLKSFAS
B30: Clone No. 2 (designed binder)
chain: LPAPKNLVVSEVTEDSLRLSWTAPDAAFDSFLIQYQESEKVGEAINLTVPGSERSYDLTGLKPGTEYTVSIYGVGGLSDIHPLSAEFTT
notes: F:G GGLSDIH
B31: Clone No. 74 (designed binder)
chain: LPAPKNLVVSEVTEDSLRLSWTAPDAAFDSFLIQYQESEKVGEAINLTVPGSERSYDLTGLKPGTEYTVSIYGVGGLSYLHPLSAEFTT
notes: F:G GGLSYLH
B32: Clone No. 71 (designed binder)
chain: LPAPKNLVVSEVTEDSLRLSWTAPDAAFDSFLIQYQESEKVGEAINLTVPGSERSYDLTGLKPGTEYTVSIYGVGGLRYLHPLSAEFTT
notes: F:G GGLRYLH
B33: Clone No. 85 (designed binder)
chain: LPAPKNLVVSEVTEDSLRLSWTAPDAAFDSFLIQYQESEKVGEAINLTVPGSERSYDLTGLKPGTEYTVSIYGVLWWTLRKPLSAEFTT
notes: F:G LWWTLRK
B34: Clone No. 14 (designed binder)
chain: LPAPKNLVVSEVTEDSLRLSWTAPDAAFDSFLIQYQESEKVGEAINLTVPGSERSYDLTGLKPGTEYTVSIYGVGGLSFLHPLSAEFTT
notes: F:G GGLSFLH
B35: Clone No. 7 (designed binder)
chain: LPAPKNLVVSEVTEDSLRLSWTAPDAAFDSFLIQYQESEKVGEAINLTVPGSERSYDLTGLKPGTEYTVSIYGVGGLTYIHPLSAEFTT
notes: F:G GGLTYIH
B36: Clone No. 78 (designed binder)
chain: LPAPKNLVVSEVTEDSLRLSWTAPDAAFDSFLIQYQESEKVGEAINLTVPGSERSYDLTGLKPGTEYTVSIYGVRLTALNAPLSAEFTT
notes: F:G RLTALNA

target: T1, recombinant TNFα, biotinylated (human, UniProt P01375 77-233, biotinylated using sulfo-NHS-LC-Biotin (sites not given)); assay: ELISA of lysates on biotinylated TNFα on streptavidin plate
T1 construct: human is stated in the abstract and claims; also called biotinylated TNFα; human TNFα
T1 sequence (P01375 77-233 limits assumed): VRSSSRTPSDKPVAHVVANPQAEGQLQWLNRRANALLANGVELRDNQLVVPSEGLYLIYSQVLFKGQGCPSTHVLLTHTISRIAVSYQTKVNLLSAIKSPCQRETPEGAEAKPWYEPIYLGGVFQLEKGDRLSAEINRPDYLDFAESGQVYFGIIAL
Experimental: Maxisorp plates (Nunc) were coated with 0.5 μg of streptavidin, washed with TBST, and bound to 100 ng of biotinylated TNFα or 200 ng of biotinylated human serum albumin before being blocked with Starting Block (Thermo Scientific). Clarified lysates diluted 1:1 in Starting Block were added to the plates and allowed to bind for 1 hour before being washed with TBST. Detection of bound Tencon was accomplished using an anti-HIS-HRP antibody (Qiagen).

Binding result, binds:
B1
B2
B3
B4
B5
B6
B7
B8
B9
B10
B11
B12
B13
B14
B15
B16
B17
B18
B19
B20
B21
B22
B23
B24
B25
B26
B27
B28
B29
B30
B31
B32
B33
B34
B35
B36
